{"source": "patent US20220389113A1", "about": "“BINDING PROTEINS TO CUB DOMAIN-CONTAINING PROTEIN (CDCP1)” (COMMONWEALTH SCIENTIFIC AND INDUSTRIAL RESEARCH ORGANISATION, priority 2019, published 2022)", "key": {"CDCP1^GFP in HEY cells": {"test_system": "CDCP1^GFP in HEY cells", "assay": "Live-cell spinning-disk confocal microscopy of HEY-CDCP1^GFP cells", "type": "cell-based", "conditions": "dasatinib 200 nM pre-treatment", "procedure": "Live-cell spinning-disk confocal imaging was performed as described (Stehbens S J, et al., (2014) 16(6):561-73.) on an environmentally controlled Nikon TI inverted microscope (Nikon, New York) equipped with a Borealis-modified Yokogawa CSU-X1 confocal head (Spectral Applied Research, Ontario Canada) and a Clara cooled interline charge-coupled device (CCD) camera (Andor Technology, Belfast, United Kingdom). Dynamics of fluorescent proteins were imaged at 37° C. using a 60×1.49 NA objective (Nikon) with imaging of CDCP1^GFP internalization induced by 10D7^pH performed at ˜1 frame/sec. Image analysis and quantification was performed using Imaris 7.1 software (Bitplane, Zurich, Switzerland) (Morton J P, et al., (2010) 139(1):292-303.). Briefly, the Spots creation wizard automatically subtracted background and detected CDCP1^GFP puncta which were filtered for analysis based on threshold values above 20 for ‘quality’ defined as the intensity at the centre of the puncta, Gaussian filtered by […] (Doyon J B, et al., (2011)13(3):331-7.). Puncta were tracked over sequential frames using the Autoregressive motion particle-tracking algorithm. […] Quantification of track length during the period 0-5 min was determined from the 100 tracks with the highest velocity in each experimental group. […]"}, "[1]": {"biological_target": "human CUB domain-containing protein 1 (CDCP1), expressed by cells (human) (UniProt Q9H5V8)", "assay": "flow cytometry of PANC-1 cells, 5 µg/ml antibody, APC-conjugated anti-mouse secondary; number in the IgG column (paragraph 330 calls the numbers of the 10D7 column MFI)"}, "[2]": {"biological_target": "human CUB domain-containing protein 1 (CDCP1), expressed by cells (human) (UniProt Q9H5V8)", "assay": "flow cytometry of TKCC02 cells, 5 µg/ml antibody, APC-conjugated anti-mouse secondary; number in the IgG column (paragraph 330 calls the numbers of the 10D7 column MFI)"}, "[3]": {"biological_target": "human CUB domain-containing protein 1 (CDCP1), expressed by cells (human) (UniProt Q9H5V8)", "assay": "flow cytometry of TKCC10 cells, 5 µg/ml antibody, APC-conjugated anti-mouse secondary; number in the IgG column (paragraph 330 calls the numbers of the 10D7 column MFI)"}, "[4]": {"biological_target": "human CUB domain-containing protein 1 (CDCP1), expressed by cells (human) (UniProt Q9H5V8)", "assay": "flow cytometry of TKCC05 cells, 5 µg/ml antibody, APC-conjugated anti-mouse secondary; number in the IgG column (paragraph 330 calls the numbers of the 10D7 column MFI)"}, "[5]": {"biological_target": "T1, recombinant CDCP1-ECD, spanning residue 30 to 665 (human, UniProt Q9H5V8 30-665)", "T1 construct": "Recombinant protein described in Chen Y et al. 2017; also called CDCP1 extracellular domain (ECD)", "T1 sequence": "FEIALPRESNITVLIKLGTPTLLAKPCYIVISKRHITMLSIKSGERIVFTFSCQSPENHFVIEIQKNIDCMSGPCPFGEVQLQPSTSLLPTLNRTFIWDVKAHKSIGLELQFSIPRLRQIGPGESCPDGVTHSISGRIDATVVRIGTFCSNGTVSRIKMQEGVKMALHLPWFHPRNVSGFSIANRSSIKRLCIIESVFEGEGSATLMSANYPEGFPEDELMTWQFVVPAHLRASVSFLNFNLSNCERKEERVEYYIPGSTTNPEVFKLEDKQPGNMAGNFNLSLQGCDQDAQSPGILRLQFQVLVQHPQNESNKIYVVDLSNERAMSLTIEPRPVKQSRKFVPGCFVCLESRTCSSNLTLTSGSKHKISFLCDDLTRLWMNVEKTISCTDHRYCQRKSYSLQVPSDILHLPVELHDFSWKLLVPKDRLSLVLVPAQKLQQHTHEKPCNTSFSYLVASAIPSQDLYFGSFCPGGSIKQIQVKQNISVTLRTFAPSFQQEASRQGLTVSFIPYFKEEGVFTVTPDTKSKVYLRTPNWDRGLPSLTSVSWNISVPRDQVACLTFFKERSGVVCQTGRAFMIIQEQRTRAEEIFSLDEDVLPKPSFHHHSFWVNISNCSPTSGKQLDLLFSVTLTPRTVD", "assay": "SPR, Biacore T200, antibody captured via Protein G, CDCP1-ECD analyte; reference 41-2"}, "[6]": {"biological_target": "T1, recombinant CDCP1-ECD, spanning residue …", "assay": "SPR, Biacore T200, antibody captured via Protein G on CM5 chip, CDCP1-ECD analyte 50 to 1.56 nM, 25 C"}, "[7]": {"biological_target": "T1, recombinant CDCP1-ECD, spanning residue …", "assay": "SPR (Biacore T200), antibody captured via Protein G on a CM5 chip, CDCP1-ECD 1.56 to 50 nM as analyte, 25 °C"}, "TKCC05 cells": {"test_system": "TKCC05 cells", "assay": "Confocal microscopy of TKCC05 cells treated with 10D7-Qdot", "type": "cell-based, human", "procedure": "Labelling of antibody 10D7 with fluorescent Qdot 625 probes was performed using a kit supplied by the manufacturer. TKCC05 cells were grown on poly-Lysine treated […] chamber slides (DKSH, Hallam, Australia) until 70% confluent then incubated with 10D7-Qdot. After 5, 10 and 120 min cells were fixed with 4% paraformaldehyde for 15 min at room temperature (RT), washed with PBS, then incubated with DAPI to highlight cell nuclei and Alexa Fluor 488 phalloidin to highlight cell cytoplasms (30 min at RT). Imaging was performed on a Nikon/Spectral Spinning Disc Confocal microscope.\nTo assess the impact of antibody 10D7 on CDCP1 expressed by PDAC, the inventors performed confocal microscopy and western blot analysis of patient-derived PDAC cells treated with this antibody for defined periods of time. […] Western blot analysis confirmed that 10D7 induces rapid transient tyrosine phosphorylation of CDCP1-ATF in TKCC05 cells and CDCP1-FL in TKCC10 cells, while Src was also transiently tyrosine phosphorylated in these cells in response to 10D7 (FIG. 11B). […] The data are consistent with CDCP1-ATF remaining tethered to the plasma membrane likely via CDCP1-CTF and indicate that intact and cleaved CDCP1 can be functionally targeted with antibody 10D7 in PDAC cells. Thus, antibody 10D7 is effective at targeting uncleaved as well as cleaved CDCP1 that are present on the surface of cancer cells."}, "[8]": {"biological_target": "T2, human CUB domain-containing protein 1 (CDCP1), expressed by cells (human, UniProt Q9H5V8 30-836)", "T2 construct": "also called CDCP1-FL; CD318", "T2 sequence": "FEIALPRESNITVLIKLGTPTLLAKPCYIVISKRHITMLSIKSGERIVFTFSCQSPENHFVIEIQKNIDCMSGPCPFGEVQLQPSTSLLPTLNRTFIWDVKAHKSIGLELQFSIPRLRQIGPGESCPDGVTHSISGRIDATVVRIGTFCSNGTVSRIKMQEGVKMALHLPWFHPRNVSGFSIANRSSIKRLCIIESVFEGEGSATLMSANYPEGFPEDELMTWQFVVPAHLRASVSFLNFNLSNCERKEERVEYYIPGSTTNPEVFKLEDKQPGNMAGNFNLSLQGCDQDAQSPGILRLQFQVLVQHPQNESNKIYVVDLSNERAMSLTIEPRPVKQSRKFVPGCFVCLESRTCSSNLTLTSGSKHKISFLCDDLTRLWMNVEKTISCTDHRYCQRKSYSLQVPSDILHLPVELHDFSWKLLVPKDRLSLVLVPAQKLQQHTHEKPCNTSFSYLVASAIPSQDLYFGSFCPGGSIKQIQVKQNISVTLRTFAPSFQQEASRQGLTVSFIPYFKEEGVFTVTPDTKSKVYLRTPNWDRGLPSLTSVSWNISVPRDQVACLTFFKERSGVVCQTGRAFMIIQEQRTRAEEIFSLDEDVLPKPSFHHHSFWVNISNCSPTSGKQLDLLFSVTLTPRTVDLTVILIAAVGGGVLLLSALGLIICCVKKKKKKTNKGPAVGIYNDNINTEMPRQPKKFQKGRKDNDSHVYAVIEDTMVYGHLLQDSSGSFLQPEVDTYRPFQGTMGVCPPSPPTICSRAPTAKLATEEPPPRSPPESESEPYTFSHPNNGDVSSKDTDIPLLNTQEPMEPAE", "assay": "summary of co-IP, SEC and reducing/non-reducing Western blots"}}, "data": [{"molecule": "Cc1nc(Nc2ncc(C(=O)Nc3c(C)cccc3Cl)s2)cc(N2CCN(CCO)CC2)n1", "note": "[dasatinib]", "values": [{"measurement": "reduction of CDCP1^GFP track length in response to 10D7", "setting": "CDCP1^GFP in HEY cells", "value": "about 80%"}]}, {"molecule": "IgG (antibody)", "values": [{"measurement": "MFI", "setting": "[1]", "value": 202}, {"measurement": "MFI", "setting": "[2]", "value": 216}, {"measurement": "MFI", "setting": "[3]", "value": 133}, {"measurement": "MFI", "setting": "[4]", "value": 234}]}, {"molecule": "anti-CDCP1 mouse monoclonal antibody 10D7 (antibody, V domains shown, also called mAb 10D7; mouse 10D7 antibody) VH: EVQLQQFGAELVKPGASVKISCKASGYSFSDFNIEWLKQSHGKSLEWIGDINPNYDSTNYNQKFKGRATLTVDKSSSTAYMEVRSLTSEDTAVYYCARLGYGYAMDYWGQGTSVTVSS VL: NIVMTQSPQSMSMSVGERVTLSCKASENVGAYVSWFQQKPDQSPKLLILAASNRYTGVPARFIGSGSATDFTLTISSVQAEDLADYHCGQSYTYPYTFGGGTKLEIKR", "values": [{"measurement": "fold stronger KD than 41-2", "setting": "[5]", "value": 2.7, "unit": "fold"}, {"measurement": "Kd", "setting": "[6]", "value": 0.44, "unit": "nM"}, {"measurement": "koff", "setting": "[7]", "value": 0.000441, "unit": "s⁻¹"}, {"measurement": "kon", "setting": "[7]", "value": "1e+06", "unit": "M⁻¹ s⁻¹"}]}, {"molecule": "10D7-Qdot (conjugate) VH: EVQLQQFGAELVKPGASVKISCKASGYSFSDFNIEWLKQSHGKSLEWIGDINPNYDSTNYNQKFKGRATLTVDKSSSTAYMEVRSLTSEDTAVYYCARLGYGYAMDYWGQGTSVTVSS VL: NIVMTQSPQSMSMSVGERVTLSCKASENVGAYVSWFQQKPDQSPKLLILAASNRYTGVPARFIGSGSATDFTLTISSVQAEDLADYHCGQSYTYPYTFGGGTKLEIKRADAAPTVS", "values": [{"measurement": "time until apparent on the plasma membrane", "setting": "TKCC05 cells", "value": "≤ 5", "unit": "min"}, {"measurement": "internalization of antibody", "setting": "TKCC05 cells; after 120 min", "value": "largely internalized"}]}, {"molecule": "CDCP1 amino-terminal fragment (CDCP1-ATF), 65 kDa (receptor, Product of proteolytic cleavage of CDCP1) FEIALPRESNITVLIKLGTPTLLAKPCYIVISKRHITMLSIKSGERIVFTFSCQSPENHFVIEIQKNIDCMSGPCPFGEVQLQPSTSLLPTLNRTFIWDVKAHKSIGLELQFSIPRLRQIGPGESCPDGVTHSISGRIDATVVRIGTFCSNGTVSRIKMQEGVKMALHLPWFHPRNVSGFSIANRSSIKRLCIIESVFEGEGSATLMSANYPEGFPEDELMTWQFVVPAHLRASVSFLNFNLSNCERKEERVEYYIPGSTTNPEVFKLEDKQPGNMAGNFNLSLQGCDQDAQSPGILRLQFQVLVQHPQNESNKIYVVDLSNERAMSLTIEPRPVKQSR", "values": [{"measurement": "binding result", "setting": "[8]", "value": "binds"}]}]}
